Reference: paper PMC4018761

How the values were obtained:
[1] = molecular target: GST-E2 300-360 (Epstein-Barr virus) (UniProt P12978); experiment: pull-down
[2] = molecular target: GST-E2 335-360 (Epstein-Barr virus) (UniProt P12978); experiment: pull-down

**Q.** How did the percent of endogenous PRMT5 pulled down [1] turn out when “endogenous PRMT5 (protein arginine methyltransferase 5) (from UniProt O14744 1-637) (enzyme)” was run?
**A.** 5%

**Q.** What about the percent of endogenous PRMT5 pulled down [2] of the same substance?
**A.** 5%
